Results taken from publication PMC8263772.

Target: dog angiotensin-converting enzyme 2 (dACE2) ectodomain, 6xHis (dog)
Test: SPR

SARS-CoV-2 spike (S) protein receptor binding domain (RBD), wild type (from UniProt P0DTC2) (domain or fragment)
Kd: 123 nM
